Assay results: the DeepSol protein solubility set

Assay: soluble on expression in E. coli; label from the status in PepcDB or PDB records
In the case of “MHGKDPFSDFREFINTMESRVQELGKAYGVEHLAGPQGFAVRYLFENQDKEIFIKDIEKKLSISKSVASNLVKRMEKNGFVELVTSDKDKRYKYVHLTDLGKKKAQDVGHFREAIHGQLLDGISKEDAETAFRVFHQIRKNLEKNKE”, the “soluble on expression in E. coli” value is reported as “not soluble”. In the case of “MHGSKLPLTVWFWAAYLMATHSNGISARQMGRHLGLGSYKSAWLLCAKLRGAMVNLARALLSGLVEIDETQISYRTKDNPVAGGGGRSPEGKMQVVVAVEVIDNAPGRLRLGVIDDASSASLHPFIKASVASGATLKTDGWSAYPGAPGYKHEPHVVGKMAAHIVLPWVHRVISNLKTWALGVYHGLRRQHLQSYLNEFVFRFNCRRTPHAAFRTLLGIGLAIQPVTYNMLIAPEAQGLEHHHHHH”, the “soluble on expression in E. coli” value is reported as “not soluble”. For “MHGSQKDTTFTKIFVGGLPYHTTDASLRKYFEGFGDIEEAVVITDRQTGKSRGYGFVTMADRAAAERACKDPNPIIDGRKANVNLAYLGAKPRSLQTGFAIGV”, the “soluble on expression in E. coli” value was “soluble”. In the case of “MHHHHHHGHNSNLQDILAANAKWASQMNNIQPTLFPDHNAKGQSPHTLFIGCSDSRYNENCLGVLPGEVFTWKNVANICHSEDLTLKATLEFAIICLKVNKVIICGHTDCGGIKTCLTNQREALPKVNCSHLYKYLDDIDTMYHEESQNLIHLKTQREKSHYLSHCNVKRQFNRIIENPTVQTAVQNGELQVYGLLYNVEDGLLQTVSTYTKVTPK”, the “soluble on expression in E. coli” value is reported as “soluble”. In the case of “MHHHHHHSSGRENLYFQGMWDQRLVRLALLQHLRAFYGIKVKGVRGQCDRRRHETAATEIGGKIFGVPFNALPHSAVPEYGHIPSFLVDACTSLEDHIHTEGLFRKSGSVIRLKALKNKVDHGEGCLSSAPPCDIAGLLKQFFRELPEPILPADLHEALLKAQQLGTEEKNKATLLLSCLLADHTVHVLRYFFNFLRNVSLRSSENKMDSSNLAVIFAPNLLQTSEGHEKMSSNTEKKLRLQAAVVQTLIDYASDIGRVPDFILEKIPAML”, the “soluble on expression in E. coli” value is reported as “soluble”. With “MHHHHHHSSGVDLGTENLYFQSMDLRVQELIKLICNVQAMEEMMMEMKYNTKKAPLGKLTVAQIKAGYQSLKKIEDCIRAGQHGRALMEACNEFYTRIPHDFGLRTPPLIRTQKELSEKIQLLEALGDIEIAIKLVKTELQSPEHPLDQHYRNLHCALRPLDHESYEFKVISQYLQSTHAPTHSDYTMTLLDLFEVEKDGEKEAFREDLHNRMLLWHGSRMSNWVGILSHGLRIAHPEAPITGYMFGKGIYFADMSSKSANYCFASRLKNTGLLLLSEVALGQCNELLEANPKAEGLLQGKHSTKGLGKMAPSSAHFVTLNGSTVPLGPASDTGILNPDGYTLNYNEYIVYNPNQVRMRYLLKVQFNF” the “soluble on expression in E. coli” value was “soluble”. For “MHHHHHHSSGVDLGTENLYFQSMKLIRVENFEAYFKKQQADSNCGFAEEYEDLKLVGISQPKYAAELAENRGKNRYNNVLPYDISRVKLSVQTHSTDDYINANYMPGYHSKKDFIATQGPLPNTLKDFWRMVWEKNVYAIIMLTKCVEQGRTKCEEYWPSKQAQDYGDITVAMTSEIVLPEWTIRDFTVKNIQTSESHPLRQFHFTSAPDHGVPDTTDLLINFRYLVRDYMKQSPPESPILVHCSAGVGRTGTFIAIDRLIYQIENENTVDVYGIVYDLRMHRPLMVQTEDQYVFLNQCVLDIVRSQKDSKVDLIY”, the “soluble on expression in E. coli” value was “soluble”. For “MHHHHHHSSGVDLGTENLYFQSMQGTNPYLTFHCVNQGTILLDLAPEDKEYQSVEEEMQSTIREHRDGGNAGGIFNRYNVIRIQKVVNKKLRERFCHRQKEVSEENHNHHNERMLFHGSPFINAIIHKGFDERHAYIGGMFGAGIYFAENSSKSNQYVYGIGGGTGCPTHKDRSCYICHRQMLFCRVTLGKSFLQFSTIKMAHAPPGHHSVIGRPSVNGLAYAEYVIYRGEQAYPEYLITYQIMKPEAPSQTATAAEQ”, the “soluble on expression in E. coli” value was “soluble”. With “MHHHHMITLENPDIKYPLRLIDKEILSHDTRRFRFALPSPQHILGLPIGQHIYLSTRIDGNLVIRPYTPVSSDDDKGFVDLVVKVYFKETHPKFPAGGKMPQYLENMNIGDTIEFRGPNGLLVYQGKGKFAIRADKKSNPVVRTVKSVGMIAGGTGITPMLQVIRAVLKDPNDHTVCYLLFANQSEKDILLRPELEELRNEHSSRFKLWYTVDKAPDAWDYSQGFVNEEMIRDHLPPPGEETLILMCGPPPMIQFACLPNLERVGHPKERCFTF” the “soluble on expression in E. coli” value was “soluble”. With “MHHPPVEELELIDSPAALEWAREWSQATQERWSNDALQRSIREALDTDARIPYVTRRGEYLYNFWRDRDHPRGVWRRTTLESFTSDSPQWQVLIDVDRLAASEEESWVWKGAHVRPHHFDRALIRLSRGGADAVEIREFDLDSGSFVEDHAFAVPEAKTQVCWVDRDTVLVGTDMGAGSLTESGYPARVHVWRRGTNLAEAEEFFCGLSSDLAVSAWAETVPGFERLFVRRALDFYRSRTFIQRDGHLQIIEVPEDCTVVVHREWMYVLPREEYAGIASGGVGAILFEDF” the “soluble on expression in E. coli” value was “not soluble”. With “MHIGQFTRQYPAETAFKVQSNPWKNSPEPFLPMSTQQPKSWADVGKVAGPPRNYHHPYEVKPFEAIDEKNDVFSTMGHWNSEQKQSRQQHQQYQQNQYQARQHQYYQNPPPFYQPEQPVHYQSAQQDVFDNIGEWDNSTPIPSQISPLQLDLTLTTPLPTFQPYPSTRSYSLESPTTSVTSNEEKNSWKTIELILNQKSSRSPSITERLSPVDFGPWTSNL” the “soluble on expression in E. coli” value was “not soluble”. For “MHIKSAIIVVSDRISTGTRENKALPLLQRLMSDELQDYSYELISEVVVPEGYDTVVEAIATALKQGARFIITAGGTGIRAKNQTPEATASFIHTRCEGLEQQILIHGSTHTHLAGLSRGIVGVTGRDDHAALIVNAPSSSGGITDTWAVISPVIPNIFEGLDAS”, the “soluble on expression in E. coli” value was “soluble”. In the case of “MHKNGNNGPVIDTKWHYLGPDSEKYGPYMSKDMLFWLQAGYFNDGLQLKTENEPNYHTLGEWSQLLGTHPFSMPVHSLDATIAQMNSMRPHGAMMMVPPGLQNQFQPPMPMRFPPFLPMPLLHQMNQNGPPMGAQMHSQPPSEPIDAGSLSHTPDSENETRLNEQTLQQPPSWLIALGLAGHGRKPHHHQQILAHQHIPQMQHANVATDQVVMKSVECQTEPVEISKEQASRVLSELLGQMVIIN”, the “soluble on expression in E. coli” value is reported as “not soluble”. In the case of “MHLAKERSSVSGTLRVGDRSPRIAEVRTALTRLGLLEGTTKNLEQTKSDTFTDSETLFDEDLALALQGFQQARGIIASGEINEITLKLLREASYSLGARVLSFEPNNIFVGDDVVQLQHQLQELGFYTDRVDGRFGELTYTSLVNYQLNYGLNPDGICGPETIRAFGRLGRRITGGSPHALRERERVRDAGPMLAGKRVVIDPGFGGADKGQVVRGPYGDITEEEIIWDLAGRIEGRMIAAGMETIVSRPRQDSPSLKGRADIANAFGADVMISLQCDKYPNDKANGVASFYFGSEMGSSSLTGEMLSGFIQREISARTDLVNCGNHGRTWDLLRITEMPTVEVVLGYLTNPHDVAILTDPEQRDAIAEAIVVAVKRLYLLDDDDQPTGTYRFSEMLEQGLL”, the “soluble on expression in E. coli” value is reported as “not soluble”. In the case of “MHPKDQSVTLLSIIRDYLKLSDKEREAARILANGLVKVDGKTVREKKFAVGFMDVIEINGESYRVVYNDQGALVLMKETKERASMKLLKVRSKVIAPGNRIQLGTHDGRTFITDDKSKKVGDVWAVSVPDMKISEIIKMQPGNKAYITAGSHVNQTGTISKIEAKEGSSANLVHFQEGFSTIKDHVFMIGSSKFSFVLSPEEVIPLEHHHHHH”, the “soluble on expression in E. coli” value is reported as “soluble”. For “MHPRFQTAFAQLADNLQSALAPILADHHFPAMLTAEQVSTLKNTAGLDEDALAFALLPLAAACARTDLSHFNVGAIARGVSGNWYFGANMEFLGATMQQTVHAEQSAISHAWLRGEKGLAAVTVNYTPCGHCRQFMNELNSGLDLRIHLPGRAPHTLRDYLPDAFGPKDLEIKTLLMDEQDHGFTLTGDTLTQAAITAANKSHMPYSHSPSGVALECKDGRIFTGSYAENAAFNPTLPPLQGALNLLSLNGYDYADIQRAILAEKGDAALIQWDATAATLKALGCHNIDRVLLG”, the “soluble on expression in E. coli” value was “not soluble”. In the case of “MHRALNQDDDHNQDGQDLLEAVLARDNLARAWRRVKSNRGAPGIDGVTTAEWPEHARAHWPATREQIEAGRYRPQPVRRVDIPKPDGGQRQLGIPTVTDRVIQQAIAQVLIPIFDPGFSASSFGFRPGRNAHQAIRQVQAHVKAGYRWAVDLDLARFFDNVNHDLLMSLLSRSIADKRLLALIGRYLRAGVLVGEHPQPSEVGTPQGGPLSPLLANVLLHQFDLELERRGHRFARYADDVIILVKSRRAAERVMQSLTYFLQSTLKLTVNLAKSQVAPMSECSFLGFTLVGKKIRWTEKSLANFKHRVRQLTGRSWGVSMEYRLEKLGQYLRGWFGYYGISQYYRPIPELDEWIRRRVRMCYWKQWRWARTKIRHLLDLGIPLKAAIQHGVSSLSYWRMARTPVTQQAMSNDWLRAQGLLSIKDLWCKAQSYGPDKGLEHHHHHH”, the “soluble on expression in E. coli” value is reported as “not soluble”. With “MHRIMLSGYLKALVDAGILKERRIKPVTLYSVLRRQDMNIYELTGNAIRSSGSKMDGDTALRLLYAILRRPVFLTEVERCGTKKPLNFETIIWERRKDLIRKLAESGIIIPETDMLVVPKDATADNTIDLISTLLGQVIDLKKYTIPEAEKKQKTLDF” the “soluble on expression in E. coli” value was “not soluble”. In the case of “MHSFLQFLRDDNPGSLEDHLNFVPSDDLKYELGMLLSSRPLYLETDELPFVSSSVLNYGIKSSVFVVSAGEHSDSVNDEISSRILMMLQRYESRLEEPVVEYLSSDDNYSFFSVTALFFMDMVRLCIKWDKNSGEFSLDE”, the “soluble on expression in E. coli” value is reported as “not soluble”. In the case of “MHTGCCTTKFDTEVLIIGNGPAGIALSSFLSGMHPFYDATHPHENVTVHEKLLANHDFSLIDQDLSWSSNLTELSQSGRPLSVLYDMLVRPGADMGSDAPGCIQWELNRRREIPHMVIGETKIGGSWNEYDAEMLTVSFSDWMDMPGFTMEQWLGGRPLVKRLPSVAIATYLKKYVERLRLRKKFHQYFVVNSIKKIGDVWVTSGKRSTDGRSFVIRSKQVVVACGKTSPRKLQLPNEEHCSSNIVYDVRALKERLDATKKTVIDEDENYDTPSTSTCSPVIVVGDGVSSVDCVRHCLERDIPVVHVIRRTLRELRNVMLSRLSPIHYSEYTDIYRMMIGRSVHKNYQRVLDASITSVSKIHVEITTGSNREIIEMPYSTVAVCIGRESHFSTVFENAHTFLDYQSEQDETLFAVGAYAGDHFVRFLVGGCLRVAQHITGAANNNNVTAKLLPIC”, the “soluble on expression in E. coli” value is reported as “not soluble”. With “MHVTLVEINVHEDKVDEFIEVFRQNHLGSVQEEGNLRFDVLQDPEVNSRFYIYEAYKDEDTVAFHKTTPHYKTCVAKLESLMTGPRKKRLFNGLMP” the “soluble on expression in E. coli” value was “not soluble”. With “MIAASDLKAGMTFEQDGKLIKVMEASHHKPGKGNTVMRMKLKDVRTGSTTDTTMRPDEKVKKAHIDTKPVQYLYSQDDMAIFMDLETYEQYEVPTALIEEELKYLLENMEVKIQFYGEEVIGLTLPTTVILRVAETQPSIKGATVTGSGKPATMETGLVVNVPDFVEADELLEINTAEGTYLKRAK” the “soluble on expression in E. coli” value was “not soluble”. In the case of “MIARRNPIEQLPAIAQDPDKFGVLLSAAEFRTHLVESIRQARKRIYLVALYLENDDAGREILTELYAAKQRNPGLEIHICVDWHRAQRGLIGAAESEGNAAMYRDFAQQHEHCIPVYGIPVRGREVFGVLHLKGFIIDDQVIYSGASLNNVYLQFHGRYRFDRYHTLENAELADSMVHFIQQEMLAHPAVNNLACGSKPTTKEIKSDIRQFRASLAQANYQFAKQKVNEGQVAVTPLVGLGRRRNRLNQSIIQLLASAKDEVFICTPYFNFPPSIAKEVKKALRRGVKVHIVIGDKTANDFYIAPEEPFKTIGGLPYLYELNLRRFAKANEAHIASRKLSIHLWKHENHSFHLKGIWVDKRYMLITGNNLNPRAWKLDLENAILIRDDYHHLTTKFEAEIDNILQHTQLICTYKQIEKPEHYPEKVQRLVRRIMRLKADRVLKQILLEHHHHHH”, the “soluble on expression in E. coli” value is reported as “soluble”. In the case of “MICTPKVGLNNQLTKVQFFMTKYNFLFKQQVIEFYLQNDKNSSLTRRHFQLAETTLERWINQFNHSGINGLALLGKKRNYSPEFKLNVIQAVKNGKFSAEAACLHFGIANSGVVSQWLQAFEKQGINGLIPKPKGRPTMKLQYPKMPPKPKTREEELELENLRLRAENAILKKLQELNQQKMQKKPLSLEHHHHHH”, the “soluble on expression in E. coli” value is reported as “not soluble”.
